Assay [1] concerns the target T1, recombinant PcrV protein (rPcrV), strain PAO1, amino acid residues 1-294, C-terminal His6 (Pseudomonas aeruginosa strain PAO1). The assay can be described thus: SPR ProteOn, periplasmic extract on immobilised rPcrV.
Assay [2] addresses T2, PcrV of P. aeruginosa strain PA103 (on TTSS-induced bacteria) (Pseudomonas aeruginosa strain PA103). Description: cell-based or functional assay.
Assay [3] concerns the target T2, PcrV of P. aeruginosa strain PA103 (on …). The assay can be described thus: cell-based or functional assay. This is another data set of the same source.
The target of assay [4] is T1, recombinant PcrV protein (rPcrV), …. Description: ELISA, periplasmic extract on biotinylated rPcrV.
The target in assay [5] is GST-PcrV (strain PAO1, amino acid residues 1-294) (Pseudomonas aeruginosa strain PAO1). Description: SPR Biacore T100, GST-PcrV immobilised.
For assay [6], the target named is T2, PcrV of P. aeruginosa strain PA103 (on …). Description: cell-based or functional assay. This is another data set of the same source.
For assay [7] the target is unchanged. Description: cell-based or functional assay. This is another data set of the same source.
Assay [8] shares this target. Description: cell-based or functional assay. The source holds these as a separate data set.

These results are taken from patent publication US20190055322A1 (Ablynx, published 2019).

A value given as a limit tells only on which side of the number the result lay.
Wherever cytotox assay (% inhibition), P3X63, PA103 is given: test concentration or dose not given here.

B1: Nanobody 12B02 (VHH)
VHH: EVQLVESGGGLVQPGGSLRLSCAASGFSLGVFAIGWFRQAPGKEREGVSCIDSSDGRTTYADSVKGRFTISRDNAKNTVYLQMNSLKPEDTAVYYCATDIETDVCSGAGWGFWGQGTQVTVSS
Take B1: in assay [1], the koff came out at 4.4e-05 s⁻¹. The “cytotox assay (% inhibition), P3X63, PA103” value (“cytotox assay (% inhibition)” below) in assay [2] came to 14%.

B2: Nanobody 2G09 (VHH)
VHH: EVQLVESGGGLVQPGGSLRLSCAASGSFGDNYELYAMTWFRQAPGERRDFVASVTGDGSTSYADSVKDRFTISRDNAKKLMYLQMNSLKPEDTAVYYCRLLNYWGQGTLVTVSS
Regarding B2, in assay [3], the “% inhibition, P3X63 cytotoxicity assay, MOI 4” value (“% inhibition … MOI 4” for short) is 55% and the “IC50 (nM), P3X63 cytotoxicity assay, MOI 4” value (shortened to “IC50 (nM) … MOI 4”) was determined as 4 nM. In addition, the koff in assay [1] turned out to be 0.001 s⁻¹. Moreover, the “cytotox assay (% inhibition)” value in assay [2] stood at 45%. Besides, the “binding ELISA (OD 450 nm)” value in assay [4] was determined as 2.37 OD 450 nm.

B3: Nanobody 5E02 (VHH)
VHH: EVQLVESGGGLVQPGGSLRLSCAASGITLDSIAICWFRQAPGKEREGVSCSRGSDGSTYYADSVKGRFTISRVNAKNTVYLQMNSLKPEDTAVYYCAAAPSIFYSGGYFPSGMDYWGKGTQVTVSS
For B3, in assay [5], the Kd was determined as 4 nM, the koff stood at 0.00068 s⁻¹ and the kon amounted to 180000 M⁻¹ s⁻¹. For the same molecule, in assay [3], the “% inhibition … MOI 4” value was determined as 100% and the “IC50 (nM) … MOI 4” value is 38 nM. In addition, the koff in assay [1] was determined as 0.00057 s⁻¹. In addition, in assay [2], the “cytotox assay (% inhibition)” value is 71%. In assay [4], the “binding ELISA (OD 450 nm)” value amounted to 2.43 OD 450 nm.

B4: Nanobody 256 (13F07-40GS-5H01) (VHH)
chain: EVQLVESGGGLVQAGGSLRLSCAASGNTFSTNPMYWYRQAEGKQRELVASISSRGITNYADSVRGRFSISRDNTKDTVYLQMNSLKPEDTAVYYCRLASLSSGTVYWGKGTLVTVSSGGGGSGGGGSGGGGSGGGGSGGGGSGGGGSGGGGSGGGGSEVQLVESGGGLVQPGGSLRLSCAASGSTLDYYAIGWFRQAPGKEREGVSCTSNSGSTYYGGSVKGRFTASRDNAKNTVYLQMNSLRPEDTAVYYCVATIGCATLGGTLDVQRYYYRGQGTLVTVSS
For the molecule B4, in assay [6], the “% inhibition in P3X63 cytotoxicity assay, extract 1/150” value (“% inhibition … extract 1/150” for short) was 65%. For the same molecule, in assay [7], the “Efficacy (%), P3X63 cytotoxicity, MOI 12” value was found to be 100% and the “IC50 value (M), P3X63 cytotoxicity, MOI 12” value (shortened to “IC50 value (M)”) turned out to be 5.4e-11 M. Also, in assay [8], the “Ratio (IC50 Fab 13.37/IC50 Nanobody), A549 cytotoxicity” value (shortened to “Ratio (IC50 Fab 13.37/IC50 Nanobody)”) is 21 fold.

B5: Nanobody 10C05 (VHH)
VHH: EVQLVESGGGLVQPGGSLRLSCAASGSIFSINTMGWYRQAPGKQRDLVASITMNQVPNYADSVQGRFTISRDNVRNTVHLQMNAVKPEDTADYFCNAWVRSSGASPYTNYWGQGTQVTVSS
With B5, in assay [3], the “% inhibition, P3X63 cytotoxicity assay, MOI 3” value (“% inhibition … MOI 3” below) turned out to be 100% and the “IC50 (nM), P3X63 cytotoxicity assay, MOI 3” value (from here on “IC50 (nM) … MOI 3”) is greater than 1000 nM. Also, the koff in assay [1] is 0.0006 s⁻¹. Further, the “cytotox assay (% inhibition)” value in assay [2] is 25%.

B6: Nanobody 2B02 (VHH)
VHH: EVQLVESGGGLVQPGDSLRLSCAASGRILSINNMVWYRQAPGKQRELVAHITSSGSTGYADSVKGRFTISRDNAKNTFYLQMTNLNPEDTAVYYCNCWVSSDSNAPLKNYWGQGTQVTVSS
As to B6, in assay [3], the “% inhibition … MOI 4” value stood at 100% and the “IC50 (nM) … MOI 4” value amounted to 1730 nM. In addition, the koff in assay [1] turned out to be 0.00037 s⁻¹. For the same molecule, in assay [2], the “cytotox assay (% inhibition)” value is 46%. In assay [4], the “binding ELISA (OD 450 nm)” value came to 2.4 OD 450 nm.

B7: Nanobody 3E10 (VHH)
VHH: EVQLVESGGGLVQAGGSLRLSCTASGHTFSSYTMGWFRQAPGKEREFVAAMTRSGFNTHYSDSVKGRFTISRDNTSRDNTKITMALQMNSLKPEDTAVYYCTTGRGLTSYVANFWGQGTQVTVSS
In assay [5], B7 had a Kd of 1 nM, a koff of 0.0039 s⁻¹ and an on-rate (kon) of 2.7e+06 M⁻¹ s⁻¹. In assay [3], the “% inhibition … MOI 4” value worked out at 94% and the “IC50 (nM) … MOI 4” value was found to be 48 nM. For the same molecule, in assay [1], the koff was 0.0015 s⁻¹. In addition, the “cytotox assay (% inhibition)” value in assay [2] worked out at 25%. The “binding ELISA (OD 450 nm)” value in assay [4] was 2.51 OD 450 nm.

B8: Nanobody 259 (1E11-40GS-5H01) (VHH)
chain: EVQLVESGGGLVQPGGSLRLSCAASGSTRSVNPMAWFRQAPGRQREWVATISRSGYATYADSVKGRFTISGDNAKSSVYLQMNSLKPEDTAVYYCVTGTYWGQGTLVTVSSGGGGSGGGGSGGGGSGGGGSGGGGSGGGGSGGGGSGGGGSEVQLVESGGGLVQPGGSLRLSCAASGSTLDYYAIGWFRQAPGKEREGVSCTSNSGSTYYGGSVKGRFTASRDNAKNTVYLQMNSLRPEDTAVYYCVATIGCATLGGTLDVQRYYYRGQGTLVTVSS
In the case of B8, the “% inhibition … extract 1/150” value in assay [6] is 52%. Moreover, in assay [7], the “Efficacy (%), P3X63 cytotoxicity, MOI 12” value stood at 100% and the “IC50 value (M)” value amounted to 3.9e-11 M. For the same molecule, the “Ratio (IC50 Fab 13.37/IC50 Nanobody)” value in assay [8] is 9 fold.

B9: Nanobody 4C03 (VHH)
VHH: EVQLVESGGGLVQAGGSLRLSCVISASTVRNYDMGWFRQAPGKEREFVAAIDWSGGSTRYADSVKGRFTVSRDNAKNTVYLQMNSLKPEDTAVYYCVAAGFYNNYLRTAPNDWNYWGQGTLVTVSS
On to B9, for which, in assay [3], the “% inhibition, P3X63 cytotoxicity assay, MOI 1.5” value was greater than 20% and the “IC50 (nM), P3X63 cytotoxicity assay, MOI 1.5” value turned out to be 8890 nM. Moreover, in assay [1], the koff came out at 0.0068 s⁻¹. The “cytotox assay (% inhibition)” value in assay [2] stood at 22%. The “binding ELISA (OD 450 nm)” value in assay [4] is 0.89 OD 450 nm.

B10: Nanobody 4G10 (VHH)
VHH: EVQLVESGGGLVQAGGSLRLSCVISEDGVRNYDMGWFRQAPGKEREFVATINWSGGSTNYADSVKGRFTVSRDNAKNTMYLQMDSLKPEDTAVYYCVAAGFYNNYLRTAPNDWNDWGQGTQVTVSS
Regarding B10, in assay [5], the Kd came to 5 nM, the koff was 0.00065 s⁻¹ and the kon stood at 140000 M⁻¹ s⁻¹. In assay [3], the “% inhibition … MOI 4” value is 100% and the “IC50 (nM) … MOI 4” value turned out to be 105 nM. Moreover, the koff in assay [1] was determined as 0.00013 s⁻¹. The “cytotox assay (% inhibition)” value in assay [2] is 81%. Besides, the “binding ELISA (OD 450 nm)” value in assay [4] turned out to be 2.6 OD 450 nm.

B11: Nanobody 261 (5H01-40GS-2B10) (VHH)
chain: EVQLVESGGGLVQPGGSLRLSCAASGSTLDYYAIGWFRQAPGKEREGVSCTSNSGSTYYGGSVKGRFTASRDNAKNTVYLQMNSLRPEDTAVYYCVATIGCATLGGTLDVQRYYYRGQGTLVTVSSGGGGSGGGGSGGGGSGGGGSGGGGSGGGGSGGGGSGGGGSEVQLVESGGGLVQPGGSLRLSCAASGSIFSINNMGWYRQAPGKQRELVTVVTSNLITTYADSVKGRFTISRDNAKNTVYLQMNSLKPEDTAVYYCNAWARSVGSVPYSQFWGQGTLVTVSS
For B11, the “% inhibition … extract 1/150” value in assay [6] is 42%. Also, in assay [7], the “Efficacy (%), P3X63 cytotoxicity, MOI 12” value was 100% and the “IC50 value (M)” value amounted to 4.8e-10 M. Moreover, in assay [8], the “Ratio (IC50 Fab 13.37/IC50 Nanobody)” value is 1 fold.

B12: Nanobody 257 (13F07-40GS-2B10) (VHH)
chain: EVQLVESGGGLVQAGGSLRLSCAASGNTFSTNPMYWYRQAEGKQRELVASISSRGITNYADSVRGRFSISRDNTKDTVYLQMNSLKPEDTAVYYCRLASLSSGTVYWGKGTLVTVSSGGGGSGGGGSGGGGSGGGGSGGGGSGGGGSGGGGSGGGGSEVQLVESGGGLVQPGGSLRLSCAASGSIFSINNMGWYRQAPGKQRELVTVVTSNLITTYADSVKGRFTISRDNAKNTVYLQMNSLKPEDTAVYYCNAWARSVGSVPYSQFWGQGTLVTVSS
B12: in assay [6], the “% inhibition … extract 1/150” value was found to be 80%. In assay [7], the “Efficacy (%), P3X63 cytotoxicity, MOI 12” value stood at 100% and the “IC50 value (M)” value was 1.3e-10 M. For the same molecule, the “Ratio (IC50 Fab 13.37/IC50 Nanobody)” value in assay [8] came to 10 fold.

B13: Nanobody 7C10 (VHH)
VHH: EVQLVESGGGLVQAGGSLRLSCTASGRTLSSYTMGWFRQAPGTEREFVAAMTRSGFNTYYADSVKGRFTISRDSTENTMALQMSSLKPEDTAVYYCTAGRGLTSYRADYWGQGTLVTVSS
In assay [5], B13 showed a Kd of 2 nM, a koff of 0.0018 s⁻¹ and a kon of 1.2e+06 M⁻¹ s⁻¹. For the same molecule, in assay [3], the “% inhibition … MOI 4” value stood at 100% and the “IC50 (nM) … MOI 4” value came out at 42 nM. In addition, the koff in assay [1] was 0.00082 s⁻¹. The “cytotox assay (% inhibition)” value in assay [2] came out at 58%. Moreover, the “binding ELISA (OD 450 nm)” value in assay [4] is 2.55 OD 450 nm.

B14: Nanobody 11B09 (VHH)
VHH: EVQLVESGGGLVQAGGSLRLSCAASRLTFNHYNMGWFRQAPGKERERVAEVTWSGDKIYYVDSVKGRFTISRDNTPNPVYLYLQMNSLKPEDTAVYYCATAPRGLPYANGYWGQGTQVTVSS
For the molecule B14, in assay [3], the “% inhibition … MOI 3” value was 100% and the “IC50 (nM) … MOI 3” value was determined as 100 nM. The koff in assay [1] came to 0.0048 s⁻¹. Further, the “cytotox assay (% inhibition)” value in assay [2] worked out at 37%.

B15: Nanobody 3B11 (VHH)
VHH: EVQLVESGGGLVQAGGSLRLSCAASGFTFDDYVIGWFRQAPGKEREGVSCISRLDGRTYYTDSVKGRFTISSDNAKNTVYLQMNSLKPEDTAVYYCALEPRYTGDYYPVHPELYDYWGQGTQVTVSS
In the case of B15, in assay [3], the “% inhibition … MOI 4” value worked out at 54% and the “IC50 (nM) … MOI 4” value was found to be 1140 nM. In assay [1], the koff was found to be 0.0027 s⁻¹. Further, the “cytotox assay (% inhibition)” value in assay [2] came to 26%. The “binding ELISA (OD 450 nm)” value in assay [4] amounted to 0.55 OD 450 nm.

B16: Nanobody 14B10 (VHH)
VHH: EVQLVESGGGLVQPGGSLRLSCAASGRIFSINNMGWYHQAPGKQRELVATITMNGITTYADSVKGRFTISRDNAKNTVYLQMNSLKPEDTAVYYCSCWVRSSGGDPYRDYWGQGTQVTVSS
Consider B16, for which, in assay [3], the “% inhibition … MOI 3” value was greater than 70% and the “IC50 (nM) … MOI 3” value was greater than 3000 nM. In assay [1], the koff was 0.00092 s⁻¹. In addition, the “cytotox assay (% inhibition)” value in assay [2] came to 20%.
